Measurements reported in US20170101466A1 (published 2017).

T1: human APRIL (human, UniProt O75888 105-250, limits assumed)
T1 construct: Bought recombinant protein; also called hAPRIL
T1 sequence (looked up): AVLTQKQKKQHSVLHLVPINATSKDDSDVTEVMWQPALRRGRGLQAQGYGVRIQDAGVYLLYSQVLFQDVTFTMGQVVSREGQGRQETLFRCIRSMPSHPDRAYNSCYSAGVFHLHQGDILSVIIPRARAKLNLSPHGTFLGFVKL

T2: mouse APRIL (mouse, UniProt Q9D777 96-241, limits assumed)
T2 construct: Bought recombinant protein; also called mAPRIL
T2 sequence (looked up): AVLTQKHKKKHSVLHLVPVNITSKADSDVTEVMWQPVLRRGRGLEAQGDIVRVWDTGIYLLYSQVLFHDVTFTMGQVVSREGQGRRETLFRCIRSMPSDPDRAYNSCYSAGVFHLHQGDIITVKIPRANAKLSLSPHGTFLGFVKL


Legend:
[1] = target: T3, soluble mouse BLyS (mouse, UniProt Q9WU72 127-309); test: DELFIA competition, Eu-mBLyS binding to coated BR3
T3 construct: europium-labelled in DELFIA; also called mBLyS; mouse BAFF (BLyS)
Experimental: (§1) After 5× washing with 200 ul/well of DELFIA 1× wash solution (PE, Cat #4010-0010), plates were blocked with 3% BSA purified from trace heavy metal amounts (PE, Cat #CR84-100) for 3 hours with shaking at room temperature. Plates were washed again five times at 200 μl/well with DELFIA wash solution.
(§2) The final 3 wells across the plate served as controls (2 wells contained 2,000 pM mAbs for negative and background controls while the third contained no mAbs for positive control). […] After 18-24 hrs at 4° C., plates were read on PE EnVision plate reader with laser excitation, LANCE/DELFIA top mirror, and emission filter Eu-615 with a delay of 400 μs. Data were fit to four parameter (variable slope) inhibition dose response curve using GraphPad PRISM 5.0 software.

[2] = target: T4, soluble human BLyS (human, UniProt Q9Y275 134-285); test: Biacore T100, binder captured by anti-human Fc, BLyS injected, 1:1 model
T4 construct: also called hBLyS; human BAFF (BLyS)
Experimental: (§3) A Series S CM5 Chip (GE Healthcare) was amine coupled with an anti-human Fc capturing antibody (GE Healthcare Human Fc Kit) to >10,000 RUs. Sample antibodies were diluted in 1×HBS-EP+ running buffer to 0.15 ug/mL and injected for 45 seconds at 10 uL/min. […] Biacore Evaluation software was used to fit the data to a 1:1 Binding Model.

[3] = target: T3, soluble mouse BLyS; test: as above
Experimental: as §3

[4] = target: T4, soluble human BLyS; test: cell-based or functional assay
[5] = target: T3, soluble mouse BLyS; test: DELFIA competition, Eu-mBLyS binding to coated BCMA
Experimental: as §1, §2

[6] = target: T4, soluble human BLyS; test: Biacore, antibody captured on chip, BLyS injected, 1:1 model, 25 C
Experimental: (§4) Recombinant protein NG (Thermo Scientific, Cat #21186) was diluted to 100 μg/ml in 10 mM sodium acetate pH 4.0 and then immobilized on the surface of a pre-activated Series S CM5 Biacore chip (GE, Cat #BR-1005-34) using amine coupling. […] After the dissociation period, the chip was regenerated back to baseline by injecting 10 mM glycine pH 1.5 for 120 seconds over the four flow cells. […] The entire data set was fit to a 1:1 interaction model to give kₒₙ, koff, and Kd values. The assay was run at 25° C. in 1× biacore running buffer HBS-EP+ (GE, Cat #BR-1006-69).

[7] = target: T3, soluble mouse BLyS; test: as above
Experimental: as §4

[8] = target: T1, human APRIL; test: Biacore, antibody captured, APRIL injected
Experimental: (§5) Recombinant protein NG (Thermo Scientific, Cat #21186) was diluted to 100 μg/ml in 10 mM Sodium Acetate pH 4.0 and then immobilized on the surface of a pre-activated Series S CM4 Biacore chip (GE, Cat #BR-1005-34) using amine coupling. […] Binding response was measured as the difference in total RU increase during 300 second APRIL injection of each individual flow cell and the reference flow cell (e.g., Flow cell 2-1).

[9] = target: T2, mouse APRIL; test: Biacore, antibody captured, APRIL injected
Experimental: as §5

[10] = target: T4, soluble human BLyS; test: DELFIA competition, Eu-hBLyS binding to coated BCMA
Experimental: as §1, §2

[11] = target: T4, soluble human BLyS; test: DELFIA competition, Eu-hBLyS binding to coated BR3
Experimental: as §1, §2

[12] = target: T3, soluble mouse BLyS; test: DELFIA competition, Eu-mBLyS binding to coated TACI
Experimental: as §1, §2

[13] = target: T4, soluble human BLyS; test: DELFIA competition, Eu-hBLyS binding to coated TACI
Experimental: as §1, §2

[14] = target: T5, soluble cynomolgus BLyS (cynomolgus, UniProt A0A2K5V2X4 134-285); test: ELISA, soluble cyBLyS
T5 construct: Soluble form; also called cyBLyS; Soluble cyBLyS

[15] = target: T4, soluble human BLyS; test: ELISA, soluble hBLyS
[16] = target: T3, soluble mouse BLyS; test: ELISA, soluble mBLyS
[17] = target: T4, soluble human BLyS; test: Biacore
[18] = target: T3, soluble mouse BLyS; test: Biacore
[19] = target: T4, soluble human BLyS; test: blocking of biotinylated soluble hBLyS binding to immobilized mBR3

Row | Binder | IC50 [1] | Kd [2] | koff [2] | kon [2] | Kd [3] | koff [3] | kon [3] | IC50 [5] | binding result [8] | binding result [9] | IC50 [10] | IC50 [11] | IC50 [12] | IC50 [13] | IC50 [14] | IC50 [15] | IC50 [16] | Kd [17] | Kd [18] | IC50 [19] | further results
1 | belimumab (antibody, V domains shown) VH: QVQLQQSGAEVKKPGSSVRVSCKASGGTFNNNAINWVRQAPGQGLEWMGGIIPMFGTAKYSQNFQGRVAITADESTGTASMELSSLRSEDTAVYYCARSRDLLLFPHHALSPWGRGTMVTVSS VL: SSELTQDPAVSVALGQTVRVTCQGDSLRSYYASWYQQKPGQAPVLVIYGKNNRPSGIPDRFSGSSSGNTASLTITGAQAEDEADYYCSSRDSSGNHWVFGGGTELTVLG | > 2 nM | 0.167 nM | 8.55e-05 s⁻¹ | 506000 M⁻¹ s⁻¹ | 0.0635 nM | 0.000125 s⁻¹ | 1.98e+06 M⁻¹ s⁻¹ | – | – | – | – | – | – | – | – | – | – | – | – | – | IC50 hBLyS stimulated, mouse splenic B-cell proliferation [4]: 0.018 µg/mL
2 | 8D12 IgG expressed in HEK293 cells (antibody, V domains shown, IgG from HEK293-FreeStyle cells; also called 8D12 (293)) VH: QVQLVQSGAEVKKPGASVKVSCKASGYTFTSYAMHWVRQAPGQRLEWMGWINAGNGNTKYSQKFQGRVTITRDTSASTAYMELSSLRSEDTAVYYCARAYYDILTGYSVYGMDVWGQGTTVTVSS VL: EIVLTQSPATLSLSPGERATLSCRANESVGNYLAWYQQKPGQAPRLLIYGASRRATGIPDRFSGSGSGTDFTLTISRLEPEDFAVYYCQQYGSSLLTFGGGTKVEIKR | > 2 nM | – | – | – | – | – | – | > 2 nM | no binding (tested: 50 nM) | no binding (tested: 50 nM) | 0.63 nM | 0.0622 nM | > 2 nM | < 0.0003 nM | 0.08 nM | 0.13 nM | 0.16 nM | 0.66 nM | 0.028 nM | 10 nM | –

Continued, in another order:

Row | IC50 [1] | Kd [2] | koff [2] | kon [2] | Kd [3] | koff [3] | kon [3] | IC50 [5] | binding result [8] | binding result [9] | IC50 [10] | IC50 [11] | IC50 [12] | IC50 [13] | IC50 [14] | IC50 [15] | IC50 [16] | Kd [17] | Kd [18] | IC50 [19] | Binder | further results
3 | > 2 nM | 0.049 nM | 5.4e-05 s⁻¹ | 1.11e+06 M⁻¹ s⁻¹ | 0.134 nM | 0.000196 s⁻¹ | 1.46e+06 M⁻¹ s⁻¹ | > 2 nM | no binding (tested: 50 nM) | no binding (tested: 50 nM) | 1.28 nM | 0.101 nM | > 2 nM | < 0.0003 nM | – | – | – | – | – | – | 8D12 IgG1 F243A/V264A double mutein expressed in Pichia pastoris (antibody, V domains shown, IgG1 F243A/V264A (EU) double mutein, alpha-2,6-sialylated, from glycoengineered Pichia pastoris; also called 8D12-DM; 8D12-DM (Pichia)) VH: QVQLVQSGAEVKKPGASVKVSCKASGYTFTSYAMHWVRQAPGQRLEWMGWINAGNGNTKYSQKFQGRVTITRDTSASTAYMELSSLRSEDTAVYYCARAYYDILTGYSVYGMDVWGQGTTVTVSS VL: EIVLTQSPATLSLSPGERATLSCRANESVGNYLAWYQQKPGQAPRLLIYGASRRATGIPDRFSGSGSGTDFTLTISRLEPEDFAVYYCQQYGSSLLTFGGGTKVEIKR | Kd [6]: 0.138 nM; koff [6]: 3.5e-05 s⁻¹; kon [6]: 260000 M⁻¹ s⁻¹; Kd [7]: 0.099 nM; koff [7]: 5.7e-05 s⁻¹; kon [7]: 580000 M⁻¹ s⁻¹
4 | – | – | – | – | – | – | – | – | – | – | – | – | – | – | 0.07 nM | 0.15 nM | 0.07 nM | 1.1 nM | 0.0456 nM | 5.31 nM | 9F8 IgG expressed in HEK293 cells (antibody, V domains shown, IgG from HEK293-FreeStyle cells) VH: QVQLQQSGAEVKKPGASVKVSCKASGYTFTSYYMHWVRQAPGQGLEWMGWINAGNGNTKYSQKFQGRVTITRDTSASTAYMELSSLRSEDTAVYYCARDNLSYDILTGYSFGGWFDPWGQGTLVTVSS VL: QSALTQPASVSGSPGQSITISCTGTSSDIGRYNYVSWYQQRPGRAPKVIIYDVSSRPSGVSKRFSASKSGNTASLTISGLQAEDEAVYYCSSYTRITTLYVFGPGTKVTVLG | –
